First the molecules themselves.
B1: B3GLCTΔREEL (human B3GLCT without REEL motif) (Homo sapiens) (protein)
chain: SEDTKKEVKQSQDLEKSGISRKNDIDLKGIVFVIQSQSNSFHAKRAEQLKKSILKQAADLTQELPSVLLLHQLAKQEGAWTILPLLPHFSVTYSRNSSWIFFCEEETRIQIPKLLETLRRYDPSKEWFLGKALHDEEATIIHHYAFSENPTVFKYPDFAAGWALSIPLVNKLTKRLKSESLKSDFTIDLKHEIALYIWDKGGGPPLTPVPEFCTNDVDFYCATTFHSFLPLCRKPVKKKDIFVAVKTCKKFHGDRIPIVKQTWESQASLIEYYSDYTENSIPTVDLGIPNTDRGHCGKTFAILERFLNRSQDKTAWLVIVDDDTLISISRLQHLLSCYDSGEPVFLGERYGYGLGTGGYSYITGGGGMVFSREAVRRLLASKCRCYSNDAPDDMVLGMCFSGLGIPVTHSPLFHQARPVDYPKDYLSHQVPISFHKHWNIDPVKVYFTWLAPSDEDKARQETQKGF
notes: secreted from pSecTag2/HygroC, C-terminal Myc-His6 tag kept; native signal peptide replaced by vector signal; C-terminal ER-retention motif REEL (last 4 of 498 residues) removed; forward primer starts near SEDTKKEV; HEK293T medium, Ni-NTA
B2: B3GLCTΔREEL (human B3GLCT without REEL motif) (Homo sapiens; V245M) (protein)
chain: SEDTKKEVKQSQDLEKSGISRKNDIDLKGIVFVIQSQSNSFHAKRAEQLKKSILKQAADLTQELPSVLLLHQLAKQEGAWTILPLLPHFSVTYSRNSSWIFFCEEETRIQIPKLLETLRRYDPSKEWFLGKALHDEEATIIHHYAFSENPTVFKYPDFAAGWALSIPLVNKLTKRLKSESLKSDFTIDLKHEIALYIWDKGGGPPLTPVPEFCTNDMDFYCATTFHSFLPLCRKPVKKKDIFVAVKTCKKFHGDRIPIVKQTWESQASLIEYYSDYTENSIPTVDLGIPNTDRGHCGKTFAILERFLNRSQDKTAWLVIVDDDTLISISRLQHLLSCYDSGEPVFLGERYGYGLGTGGYSYITGGGGMVFSREAVRRLLASKCRCYSNDAPDDMVLGMCFSGLGIPVTHSPLFHQARPVDYPKDYLSHQVPISFHKHWNIDPVKVYFTWLAPSDEDKARQETQKGF
notes: as for B1
B3: B3GLCTΔREEL (human B3GLCT without REEL motif) (Homo sapiens; T179S) (protein)
chain: SEDTKKEVKQSQDLEKSGISRKNDIDLKGIVFVIQSQSNSFHAKRAEQLKKSILKQAADLTQELPSVLLLHQLAKQEGAWTILPLLPHFSVTYSRNSSWIFFCEEETRIQIPKLLETLRRYDPSKEWFLGKALHDEEATIIHHYAFSENPSVFKYPDFAAGWALSIPLVNKLTKRLKSESLKSDFTIDLKHEIALYIWDKGGGPPLTPVPEFCTNDVDFYCATTFHSFLPLCRKPVKKKDIFVAVKTCKKFHGDRIPIVKQTWESQASLIEYYSDYTENSIPTVDLGIPNTDRGHCGKTFAILERFLNRSQDKTAWLVIVDDDTLISISRLQHLLSCYDSGEPVFLGERYGYGLGTGGYSYITGGGGMVFSREAVRRLLASKCRCYSNDAPDDMVLGMCFSGLGIPVTHSPLFHQARPVDYPKDYLSHQVPISFHKHWNIDPVKVYFTWLAPSDEDKARQETQKGF
notes: as for B1
B4: B3GLCTΔREEL (human B3GLCT without REEL motif) (Homo sapiens; R337H) (protein)
chain: SEDTKKEVKQSQDLEKSGISRKNDIDLKGIVFVIQSQSNSFHAKRAEQLKKSILKQAADLTQELPSVLLLHQLAKQEGAWTILPLLPHFSVTYSRNSSWIFFCEEETRIQIPKLLETLRRYDPSKEWFLGKALHDEEATIIHHYAFSENPTVFKYPDFAAGWALSIPLVNKLTKRLKSESLKSDFTIDLKHEIALYIWDKGGGPPLTPVPEFCTNDVDFYCATTFHSFLPLCRKPVKKKDIFVAVKTCKKFHGDRIPIVKQTWESQASLIEYYSDYTENSIPTVDLGIPNTDRGHCGKTFAILERFLNHSQDKTAWLVIVDDDTLISISRLQHLLSCYDSGEPVFLGERYGYGLGTGGYSYITGGGGMVFSREAVRRLLASKCRCYSNDAPDDMVLGMCFSGLGIPVTHSPLFHQARPVDYPKDYLSHQVPISFHKHWNIDPVKVYFTWLAPSDEDKARQETQKGF
notes: as for B1
B5: B3GLCTΔREEL (human B3GLCT without REEL motif) (Homo sapiens; Q457R) (protein)
chain: SEDTKKEVKQSQDLEKSGISRKNDIDLKGIVFVIQSQSNSFHAKRAEQLKKSILKQAADLTQELPSVLLLHQLAKQEGAWTILPLLPHFSVTYSRNSSWIFFCEEETRIQIPKLLETLRRYDPSKEWFLGKALHDEEATIIHHYAFSENPTVFKYPDFAAGWALSIPLVNKLTKRLKSESLKSDFTIDLKHEIALYIWDKGGGPPLTPVPEFCTNDVDFYCATTFHSFLPLCRKPVKKKDIFVAVKTCKKFHGDRIPIVKQTWESQASLIEYYSDYTENSIPTVDLGIPNTDRGHCGKTFAILERFLNRSQDKTAWLVIVDDDTLISISRLQHLLSCYDSGEPVFLGERYGYGLGTGGYSYITGGGGMVFSREAVRRLLASKCRCYSNDAPDDMVLGMCFSGLGIPVTHSPLFHQARPVDYPKDYLSHRVPISFHKHWNIDPVKVYFTWLAPSDEDKARQETQKGF
notes: as for B1

10 molecules from article PMC8233153, “Peters plus syndrome mutations affect the function and stability of human β1,3-glucosyltransferase” (The Journal of Biological Chemistry, 2021) can be followed below.

As a reminder, the Km is the concentration of substrate that gives half-maximal velocity. Broadly, the Vmax is the top rate of the reaction or transport when substrate is in excess. Usually kcat stands for the maximal rate divided by the concentration of active sites.

The target of the first series is O-fucosylated TSR3 from human thrombospondin-1 (Fuc-O-TSR3) (human).
Experiment: not given
Conditions: not given
The molecule “human B3GLCTΔREEL V245M (PTRPLS-like mutant) (from UniProt Q6Y288 1-498) (enzyme)” returned a K (half) (μM) for the acceptor substrate Fuc-O-TSR3 in the in vitro glucosyltransferase assay (UDP-Glo; allosteric sigmoidal fit) of 6.64 µM.

The molecule “human B3GLCTΔREEL Q457R (PTRPLS-like mutant) (from UniProt Q6Y288 1-498) (enzyme)” displayed a K (half) (μM) for the acceptor substrate Fuc-O-TSR3 in the in vitro glucosyltransferase assay (UDP-Glo; allosteric sigmoidal fit) of 5.73 µM.

“human B3GLCTΔREEL T179S (PTRPLS-like mutant) (from UniProt Q6Y288 1-498) (enzyme)” showed a K (half) (μM) for the acceptor substrate Fuc-O-TSR3 in the in vitro glucosyltransferase assay (UDP-Glo; allosteric sigmoidal fit) of 8.04 µM.

In turn, “human B3GLCTΔREEL R337H (PTRPLS-like mutant) (from UniProt Q6Y288 1-498) (enzyme)” registered a K (half) (μM) for the acceptor substrate Fuc-O-TSR3 in the in vitro glucosyltransferase assay (UDP-Glo; allosteric sigmoidal fit) of 6.65 µM.

With “human B3GLCT with the REEL motif removed (B3GLCTΔREEL), wild type (from UniProt Q6Y288 1-498) (enzyme)”, the K (half) (μM) for the acceptor substrate Fuc-O-TSR3 in the in vitro glucosyltransferase assay (UDP-Glo; allosteric sigmoidal fit) was found to be 8.9 µM.

Substrate in a further series: O=c1ccn([C@@H]2O[C@H](CO[P@@](=O)(O)O[P@@](=O)(O)O[C@H]3O[C@H](CO)[C@@H](O)[C@H](O)[C@H]3O)[C@@H](O)[C@H]2O)c(=O)[nH]1
The series is described as follows: UDP-Glo glycosyltransferase assay (UDP release, luminescence), Michaelis-Menten fit. The series is classed as biochemical. To be noted: donor varied, acceptor Fuc-O-TSR3 (human thrombospondin-1 TSR3), 50 mM Tris/HCl pH 7.5, 37 °C, 20 min, no metal added. The source says: UDP-Glo glycosyltransferase assay (UDP release, luminescence), Michaelis-Menten fit on B3GLCTΔREEL (human B3GLCT without REEL motif)
On to B1, for which the Km was found to be 25.47 µM, the Vmax was determined as 0.0432 µmol/min/mg and the catalytic constant (kcat) is 0.0403 s⁻¹.

Regarding B2, the Km stood at 18.74 µM, the Vmax turned out to be 0.0246 µmol/min/mg and the turnover number (kcat) came to 0.023 s⁻¹.

In the case of B3, the Km turned out to be 20.94 µM, the maximal velocity (Vmax) was found to be 0.0324 µmol/min/mg and the kcat worked out at 0.0303 s⁻¹.

For B4, the Km came to 21.89 µM, the Vmax was 0.0277 µmol/min/mg and the kcat was determined as 0.0258 s⁻¹.

Regarding B5, the Michaelis-Menten constant (Km) is 17.39 µM, the Vmax worked out at 0.0236 µmol/min/mg and the catalytic constant (kcat) turned out to be 0.022 s⁻¹.
